# Measurements reported in article PMC3579138.
# How the values were obtained:
# [1] = target: K63-polyubiquitinated Nedd4 (resin-bound GST-Nedd4, autoubiquitinated) (UniProt P46934); assay: pull-down
# [2] = target: K63-polyubiquitinated Sic1 (UniProt P38634)
# [3] = target: K63-linked tetraubiquitin (Homo sapiens) (UniProt P0CG48); details: cited from earlier work
# [4] = target: K48-linked tetraubiquitin (Homo sapiens) (UniProt P0CG48); details: cited from earlier work
# K63-polyubiquitinated Nedd4 (resin-bound GST-Nedd4, autoubiquitinated), sequence (P46934 whole entry): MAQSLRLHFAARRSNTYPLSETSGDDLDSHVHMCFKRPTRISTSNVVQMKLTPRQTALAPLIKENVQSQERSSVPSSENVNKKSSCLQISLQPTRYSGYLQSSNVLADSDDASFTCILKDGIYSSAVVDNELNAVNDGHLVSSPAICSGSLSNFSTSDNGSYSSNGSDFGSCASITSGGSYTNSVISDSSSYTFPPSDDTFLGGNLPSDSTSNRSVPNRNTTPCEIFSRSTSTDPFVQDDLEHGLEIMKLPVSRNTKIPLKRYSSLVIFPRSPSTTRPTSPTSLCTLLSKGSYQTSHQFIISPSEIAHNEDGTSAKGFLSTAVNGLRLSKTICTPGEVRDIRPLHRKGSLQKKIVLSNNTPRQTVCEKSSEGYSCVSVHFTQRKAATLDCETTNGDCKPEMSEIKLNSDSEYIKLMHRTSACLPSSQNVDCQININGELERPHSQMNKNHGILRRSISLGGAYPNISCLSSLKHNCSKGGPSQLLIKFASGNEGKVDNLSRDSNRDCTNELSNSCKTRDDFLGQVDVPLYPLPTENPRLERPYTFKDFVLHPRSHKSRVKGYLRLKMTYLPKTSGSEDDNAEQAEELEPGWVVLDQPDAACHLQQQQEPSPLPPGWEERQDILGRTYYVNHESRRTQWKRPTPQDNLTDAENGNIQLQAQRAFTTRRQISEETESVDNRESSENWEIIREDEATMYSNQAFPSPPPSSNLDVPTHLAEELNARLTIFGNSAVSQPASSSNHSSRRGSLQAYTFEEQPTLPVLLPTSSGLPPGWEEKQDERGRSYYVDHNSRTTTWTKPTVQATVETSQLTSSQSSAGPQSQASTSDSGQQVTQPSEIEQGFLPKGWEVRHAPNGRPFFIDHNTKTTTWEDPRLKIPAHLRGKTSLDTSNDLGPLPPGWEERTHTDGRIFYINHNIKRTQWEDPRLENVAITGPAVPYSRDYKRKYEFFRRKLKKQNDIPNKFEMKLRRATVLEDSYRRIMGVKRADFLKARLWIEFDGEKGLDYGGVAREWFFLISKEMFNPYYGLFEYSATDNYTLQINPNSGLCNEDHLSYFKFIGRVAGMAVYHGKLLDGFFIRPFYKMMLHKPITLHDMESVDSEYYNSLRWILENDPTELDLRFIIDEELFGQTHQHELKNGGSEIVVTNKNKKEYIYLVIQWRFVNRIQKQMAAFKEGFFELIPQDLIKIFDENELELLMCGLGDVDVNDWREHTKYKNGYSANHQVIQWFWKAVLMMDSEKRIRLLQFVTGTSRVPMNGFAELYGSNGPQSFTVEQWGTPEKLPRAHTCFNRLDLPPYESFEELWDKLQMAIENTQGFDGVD
# hHR23A UBA2, sequence (P54725 315-361): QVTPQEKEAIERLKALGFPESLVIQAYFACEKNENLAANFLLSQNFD
# Hrs, purified recombinant, sequence (O14964 whole entry): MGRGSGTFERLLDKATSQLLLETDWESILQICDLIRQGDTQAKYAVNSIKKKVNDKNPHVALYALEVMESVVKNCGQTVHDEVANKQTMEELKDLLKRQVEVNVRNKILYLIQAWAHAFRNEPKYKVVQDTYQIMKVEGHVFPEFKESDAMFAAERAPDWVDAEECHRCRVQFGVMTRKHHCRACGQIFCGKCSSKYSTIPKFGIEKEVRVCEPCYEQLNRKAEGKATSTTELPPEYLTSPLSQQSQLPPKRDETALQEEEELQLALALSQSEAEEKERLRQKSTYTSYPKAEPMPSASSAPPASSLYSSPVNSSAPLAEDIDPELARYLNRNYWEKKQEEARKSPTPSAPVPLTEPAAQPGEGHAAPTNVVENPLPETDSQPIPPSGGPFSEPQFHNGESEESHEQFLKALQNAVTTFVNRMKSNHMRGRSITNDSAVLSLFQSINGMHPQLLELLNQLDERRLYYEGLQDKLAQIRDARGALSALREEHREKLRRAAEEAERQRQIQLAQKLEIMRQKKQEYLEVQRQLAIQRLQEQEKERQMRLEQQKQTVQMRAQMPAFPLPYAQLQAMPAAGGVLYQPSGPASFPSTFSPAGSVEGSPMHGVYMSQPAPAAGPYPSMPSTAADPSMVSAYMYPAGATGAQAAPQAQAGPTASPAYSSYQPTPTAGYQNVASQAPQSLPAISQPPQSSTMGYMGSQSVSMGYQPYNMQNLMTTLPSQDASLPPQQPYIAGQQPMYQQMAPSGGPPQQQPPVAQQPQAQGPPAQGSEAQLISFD
substance,measurement,setting,value
26S proteasomes purified from rabbit muscle (complex),percent binding with lysate of cells with Hrs and STAM knocked down,[1],35%
same,percent binding with lysate of control cells,[1],19%
same,percent reduction of binding by the cell extract,[1],< 80%
"Hrs, purified recombinant (from UniProt O14964 1-777) (natural protein)",percent decrease of conjugate binding to proteasomes at 80nM,[2],80%
hHR23A UBA2 (from UniProt P54725),Kd,[3],28 µM
same,Kd,[4],8 µM
